Data on one molecule can be found in patent US20190322724A1 (RESEARCH FOUNDATION FOR THE STATE UNIVERSITY OF NEW YORK, published 2019).

The experiment concerns the target T1, endogenous secreted MMP-2 in conditioned media of SYF and SYF+c-Src mouse embryonic fibroblast cells (mouse (endogenous protein of mouse …, UniProt P33434 30-662, limits assumed)).
T1 construct: also called endogenous secreted MMP-2 in SYF CM
Description: Ni-NTA pulldown from SYF CM, immunoblot.
Description: Pulldown and co-pulldown experiments were performed from CM and immunoblots were followed. […] Data represent three independent experiments.
Equal amounts of isolated cell extract proteins were incubated with HisPur Ni-NTA Resin (ThermoScientific) for 2 hours at 4° C. Immunopellets were washed 4 times with fresh lysis buffer (20 mM HEPES pH 7.0, 100 mM NaCl, 1 mM MgCl2, 0.1% NP40, protease inhibitor cocktail (Roche) and PhosSTOP (Roche)). […] Pulldowns were also performed using conditioned media concentrated ˜10× using Amicon Ultra 10K centrifugal filters (Millipore) according to the manufacturer's protocol. HiPur Ni-NTA Resin was used to pulldown His6-tagged TIMP-2 from concentrated conditioned media. Briefly, HisPur Ni-NTA Resin was washed 3 times by vortexing resin with 0.1% NP40 lysis buffer and pipetting off supernatant. Concentrated conditioned media was combined with washed HisPur Ni-NTA Resin, and placed on rotator at 4° C. for 1 hour. Wash step was repeated 4 times with 1% NP40 buffer+150 mM NaCl to reduce non-specific binding of proteins to resin. 5× protein loading buffer was added to resin and boiled for 5 minutes.

T1 sequence (P33434 30-662 limits assumed): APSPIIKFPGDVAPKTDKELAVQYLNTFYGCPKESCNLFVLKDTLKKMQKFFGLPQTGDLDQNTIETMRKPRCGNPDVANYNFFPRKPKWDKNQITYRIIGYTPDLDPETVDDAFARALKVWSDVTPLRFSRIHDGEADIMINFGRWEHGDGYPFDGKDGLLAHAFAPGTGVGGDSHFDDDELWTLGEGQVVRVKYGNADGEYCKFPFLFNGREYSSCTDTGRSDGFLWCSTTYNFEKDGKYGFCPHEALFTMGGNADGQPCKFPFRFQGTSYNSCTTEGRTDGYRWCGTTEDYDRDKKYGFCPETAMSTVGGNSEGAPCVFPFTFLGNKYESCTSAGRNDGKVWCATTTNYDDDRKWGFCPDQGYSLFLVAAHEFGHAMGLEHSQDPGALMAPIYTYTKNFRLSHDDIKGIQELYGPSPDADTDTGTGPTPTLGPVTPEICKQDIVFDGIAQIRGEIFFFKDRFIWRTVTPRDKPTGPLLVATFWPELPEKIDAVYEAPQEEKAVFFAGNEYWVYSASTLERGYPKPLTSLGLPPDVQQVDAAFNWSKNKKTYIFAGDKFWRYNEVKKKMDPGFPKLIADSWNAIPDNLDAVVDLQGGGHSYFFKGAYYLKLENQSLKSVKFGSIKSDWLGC

B1: TIMP-2 Y62F/Y90F/Y165F-His6 (other)
chain: CSCSPVHPQQAFCNADVVIRAKAVSEKEVDSGNDIFGNPIKRIQYEIKQIKMFKGPEKDIEFIFTAPSSAVCGVSLDVGGKKEYLIAGKAEGDGKMHITLCDFIVPWDTLSTTQKKSLNHRYQMGCECKITRCPMIPCFISSPDECLWMDWVTEKNINGHQAKFFACIKRSDGSCAWYRGAAPPKQEFLDIEDPHHHHHH
notes: also called TF; triple F mutant
As for B1, the binding result is “no binding”.
